Article PMC1331985 (Nucleic Acids Research, 2006)

Molecular target: the molecule itself
Assay: SEC

| Protein | binding result |
| --- | --- |
| Est3p-K71A (natural protein, S. cerevisiae, UniProt Q03096 1-181, looked up) MPKVILESHSKPTDSVFLQPWIKALIEDNSEHDQYHPSGHVIPSLTKQDLALPHMSPTILTNPCHFAKITAFYNVCDYKVYASIRDSSHQILVEFSQECVSNFERTHNCRITSETTNCLMIIGDADLVYVTNSRAMSHFKICLSNISSKEIVPVLNVNQATIFDIDQVGSLSTFPFVYKYL | binds |
| Est3p-E104A (natural protein, S. cerevisiae, UniProt Q03096 1-181, looked up) MPKVILESHSKPTDSVFLQPWIKALIEDNSEHDQYHPSGHVIPSLTKQDLALPHMSPTILTNPCHFAKITKFYNVCDYKVYASIRDSSHQILVEFSQECVSNFARTHNCRITSETTNCLMIIGDADLVYVTNSRAMSHFKICLSNISSKEIVPVLNVNQATIFDIDQVGSLSTFPFVYKYL | binds |
| Est3p-K3A (natural protein, S. cerevisiae, UniProt Q03096 1-181, looked up) MPAVILESHSKPTDSVFLQPWIKALIEDNSEHDQYHPSGHVIPSLTKQDLALPHMSPTILTNPCHFAKITKFYNVCDYKVYASIRDSSHQILVEFSQECVSNFERTHNCRITSETTNCLMIIGDADLVYVTNSRAMSHFKICLSNISSKEIVPVLNVNQATIFDIDQVGSLSTFPFVYKYL | binds |
| Est3p-S87A (natural protein, S. cerevisiae, UniProt Q03096 1-181, looked up) MPKVILESHSKPTDSVFLQPWIKALIEDNSEHDQYHPSGHVIPSLTKQDLALPHMSPTILTNPCHFAKITKFYNVCDYKVYASIRDASHQILVEFSQECVSNFERTHNCRITSETTNCLMIIGDADLVYVTNSRAMSHFKICLSNISSKEIVPVLNVNQATIFDIDQVGSLSTFPFVYKYL | binds |
| Est3p-F72A (natural protein, S. cerevisiae, UniProt Q03096 1-181, looked up) MPKVILESHSKPTDSVFLQPWIKALIEDNSEHDQYHPSGHVIPSLTKQDLALPHMSPTILTNPCHFAKITKAYNVCDYKVYASIRDSSHQILVEFSQECVSNFERTHNCRITSETTNCLMIIGDADLVYVTNSRAMSHFKICLSNISSKEIVPVLNVNQATIFDIDQVGSLSTFPFVYKYL | binds |
| Est3p-T115A (natural protein, S. cerevisiae, UniProt Q03096 1-181, looked up) MPKVILESHSKPTDSVFLQPWIKALIEDNSEHDQYHPSGHVIPSLTKQDLALPHMSPTILTNPCHFAKITKFYNVCDYKVYASIRDSSHQILVEFSQECVSNFERTHNCRITSEATNCLMIIGDADLVYVTNSRAMSHFKICLSNISSKEIVPVLNVNQATIFDIDQVGSLSTFPFVYKYL | binds |
